Laboratory results taken from IntAct's records for PubMed 19704022.

Assays:
cof1_rat Cfl1 [1] = biological target: cof1_rat Cfl1 (UniProt P45592)
cofa_dicdi cofA = cofa_dicdi cofA (UniProt P0DJ26)
cof1_rat Cfl1 [2] = biological target: cof1_rat Cfl1 (UniProt P45592); remark: listed apart in the source

Sequence of cof1_rat Cfl1 (P45592 whole entry): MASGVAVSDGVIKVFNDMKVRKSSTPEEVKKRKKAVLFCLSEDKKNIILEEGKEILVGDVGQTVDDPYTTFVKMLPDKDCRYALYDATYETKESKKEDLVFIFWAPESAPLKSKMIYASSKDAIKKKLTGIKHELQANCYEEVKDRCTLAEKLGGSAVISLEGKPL
Sequence of Src substrate cortactin (Mus musculus), Q60598 Y421F;Y466F;Y482F (Q60598 whole entry Y421F/Y466F/Y482F): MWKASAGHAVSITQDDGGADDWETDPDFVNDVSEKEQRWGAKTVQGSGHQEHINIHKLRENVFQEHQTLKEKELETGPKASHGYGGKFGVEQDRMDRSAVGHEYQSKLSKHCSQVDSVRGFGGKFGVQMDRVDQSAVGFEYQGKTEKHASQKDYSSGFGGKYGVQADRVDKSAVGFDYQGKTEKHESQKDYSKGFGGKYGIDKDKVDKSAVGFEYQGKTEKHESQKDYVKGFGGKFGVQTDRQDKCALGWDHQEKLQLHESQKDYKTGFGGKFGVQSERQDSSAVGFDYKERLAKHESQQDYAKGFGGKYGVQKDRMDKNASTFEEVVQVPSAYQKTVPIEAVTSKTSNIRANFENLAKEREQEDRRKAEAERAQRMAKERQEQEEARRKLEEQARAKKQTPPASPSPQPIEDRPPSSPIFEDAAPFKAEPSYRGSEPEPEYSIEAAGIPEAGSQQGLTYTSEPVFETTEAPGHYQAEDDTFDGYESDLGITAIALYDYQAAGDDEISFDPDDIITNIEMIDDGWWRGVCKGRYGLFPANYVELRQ
Sequence of cofa_dicdi cofA (P0DJ26 whole entry): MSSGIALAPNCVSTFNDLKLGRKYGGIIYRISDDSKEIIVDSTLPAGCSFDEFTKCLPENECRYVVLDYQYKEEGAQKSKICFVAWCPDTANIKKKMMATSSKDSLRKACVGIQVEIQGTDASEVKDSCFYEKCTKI
Sequence of Src substrate cortactin (Mus musculus), Q60598 Y421E;Y466E;Y482E (Q60598 whole entry Y421E/Y466E/Y482E): as the sequence (Q60598 whole entry Y421F/Y466F/Y482F) above, with F421E, F466E, F482E counted along it

Src substrate cortactin (Mus musculus), Q60598 Y421F;Y466F;Y482F
effect of a mutation on the interaction (cof1_rat Cfl1 [1]): increasing interaction | effect of a mutation on the interaction (cofa_dicdi cofA): increasing interaction

Src substrate cortactin (Mus musculus), Q60598 Y421E;Y466E;Y482E
effect of a mutation on the interaction (cof1_rat Cfl1 [2]): decreasing interaction
